From patent US20170138958A1

How the values were obtained:
[1] = target: Fr. 3 antigen (C-terminal region, zinc finger region, positions 294-449 of WT1) (human) (UniProt P19544); experiment: antigen inhibition ELISA on immobilised Fr. 3; antibody whose binding is inhibited: serum sample No. 7
[2] = target: Fr. 3 antigen (C-terminal region, zinc finger region, positions 294-449 of WT1) (human) (UniProt P19544); experiment: antigen inhibition ELISA on immobilised Fr. 3; antibody whose binding is inhibited: serum sample No. 9
[3] = target: Fr. 3 antigen (C-terminal region, zinc finger region, positions 294-449 of WT1) (human) (UniProt P19544); experiment: antigen inhibition ELISA on immobilised Fr. 3; antibody whose binding is inhibited: C-19 (PoAb)
[4] = target: Fr. 3 antigen (C-terminal region, zinc finger region, positions 294-449 of WT1) (human) (UniProt P19544); experiment: antigen inhibition ELISA on immobilised Fr. 3; antibody whose binding is inhibited: serum sample No. 3

Chain of UniProt P19544 (P19544 294-449): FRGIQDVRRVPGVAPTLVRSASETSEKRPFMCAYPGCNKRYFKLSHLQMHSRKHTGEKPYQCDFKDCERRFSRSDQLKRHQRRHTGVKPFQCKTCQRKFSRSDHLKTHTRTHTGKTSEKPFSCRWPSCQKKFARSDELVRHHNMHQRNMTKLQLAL

percent inhibition [1]	percent inhibition [2]	percent inhibition [3]	percent inhibition [4]	Substance
10%	40%	25%	–	Fr. 1 antigen (recombinant hWT1 Fr. 1, N-terminal region, positions 1-182 of WT1) (from UniProt P19544 1-182)
20%	–	50%	70%	Fr. 2 antigen (hWT1 Fr. 2, central region, positions 181-324 of WT1) (from UniProt P19544 181-324)
